Source: the nanobody polyreactivity screen of Harvey et al. (2022)

Assay: yeast display, Sf9 membrane polyspecificity reagent, FACS + sequencing; frameworks hold sequencing errors
Procedure, shortened: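 A synthetic nanobody library was expressed on Saccharomyces cerevisiae BJ5465 by galactose induction for 36–48 hours. The library was stained for 1 hour at 4 °C with 10% biotinylated, detergent-solubilized Sf9 membrane reagent and enriched with streptavidin microbeads before FACS. Low and high (top ~1%) gates were set on anti-HA fluorescence for expression and streptavidin fluorescence for reagent binding, and each polyreactivity label reflects the gate of origin.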

For “QVQLVESGGGLVQAGGSLRLSCAPSGSIFYVYARGWYRQAPGKERQLVATIPRVGRTYYADSVKGRFTISRDNAKNTVYLQRNSLKPEDTAVYYCATRYGGRSYKYDYWGQGTQVTVSS”, which “polyreactivity (PSR sort gate)” value is on record?
The value was “high polyreactivity”.

With “QVQLVESGGGLVQAGGSLRLSCAASGFIFEYYAMGGYRQAPGKERELVAAISGGGRTYYADSVKGRFTISRDNAKNTVYLQMNSLKPEDTAVYYCAAGYAYRGYWVNRITRDGYWGQGTQVTVSS” as the sequence, how does the “polyreactivity (PSR sort gate)” value read?
Its value is “high polyreactivity”.

For “QVQLVESGGGLVQAGGSLRLSCAASGSILVPNAMGWYRQAPGKERELVAGISANGGSTYYADSVKGRFTISRDNANNTVYLQMNSLKPEDTAVYYCNARLYWDWYGDDYWVQGTQVTVSS”, which “polyreactivity (PSR sort gate)” value is on record?
Its value is “low polyreactivity”.

Which “polyreactivity (PSR sort gate)” value does the source give for “QVQLVESGGGLVQAGGSLRLSCAASGLIFYLYAMGWYRQAPGKEMELVAAISSGGSTYYADSVKGRFTISRDNAKNTVYLQMISLKPEDTAVYYCNARYYYVSGLQAYYYWGQGTQVTVSS” here?
The value was “high polyreactivity”.

For “QVQLVESGGGLVQAGGSLRLSCAASGFTAVGNAMGWYRPAPGKERELVASITNGGSTNYADSVKGRFTISRDNAKNTVYIQMNSLKPEDTAVYYCATDTYFDYTGALSHSGYYYWGQGTQVTVSS”, which “polyreactivity (PSR sort gate)” value is on record?
The value was “low polyreactivity”.

With “QVQLVESGGGLVQAGGSLRLSCAASGFTFGYYAMGWYRQAPGKERELVAGITTDGSTNYADSVKGRFTISRDNAKNTVYLQMNSLKPEDTAVYYCAADDLHWLNSKRYRGRDYWGQGTQVTVSS” as the sequence, how does the “polyreactivity (PSR sort gate)” value read?
The value was “low polyreactivity”.

With “QVQLVESGGGLVQAGGSLRISCEAYGSIFGSYAMGWYRQEPGKERELVAGITYRGSSTYYADSVKGRYTISRDNAKNTVYLQMNSLKPEDTAVYYCAADPVFDEYDYWGQGTQVTVSW” as the sequence, how does the “polyreactivity (PSR sort gate)” value read?
The value was “low polyreactivity”.

Which “polyreactivity (PSR sort gate)” value does the source give for “QVQLVESGGGLVQAGGSLRLSCAASGSISGWYAMGWYRQAPGKERELVADISSIAGSTYYADSVKGRFTISRDNAKNTVYLQMNSLKPEDTAVYYCAADDAAWPYSWWGFDYWGQGTQVTVSS” here?
Its value is “low polyreactivity”.

Which “polyreactivity (PSR sort gate)” value does the source give for “QVQLVESVGGLVQAGGSLRLSCAASGSMFKVYAMGWYRQAPGKEREFVAAITSSDSNTNYADSVKGRFTISRDNAKNTVYLQMNSLKPEDTAVYYCNKDGGGDSYWYDYWGQGTQVTVSS” here?
The value was “low polyreactivity”.

With “QVQLVESGGGLVQAGGSLRLSCAPSGRIFSFNTMVLYRHAPGTEREFVATIRYSGGSTYADSVKGRFTISRDNAKNTVYLQMNSLKPEDTAVYYCAAAWWSYKFNRDFDYWGQGTQVTVSS” as the sequence, how does the “polyreactivity (PSR sort gate)” value read?
Its value is “low polyreactivity”.

With “QVQLVESGGGLVQAGGSLRLSCAASGNIFVDNAMGWYRQAPGKERELVAAITFSGDDTYYADSVKGRFTISRDNAKNTVYLQMNSLKPEDTAVYYCNAVPTLYWWYDYWGQGTQVTVSS” as the sequence, how does the “polyreactivity (PSR sort gate)” value read?
The value was “low polyreactivity”.

With “QVQLVESGGVLVQAGGSLRLSCAASGRTFPTYAMGCSRPAPGKERELVAAITSGGSTYYADTVKGRFTISRDKAKNTVYLQMTSLKPEDTAVYYCAAISTWGTKYDYWGQGTQVTVSS” as the sequence, how does the “polyreactivity (PSR sort gate)” value read?
The value was “high polyreactivity”.

Which “polyreactivity (PSR sort gate)” value does the source give for “QVQHVESGGGLVQAGGSLRLSCAASGFTFWRYAMGWYRQEPGKERELVAGISSGGSTNYADSVKGRFTISRDNAKNTVYLQMNSLKPEDTAVYYCAADNSVGSYDYWGQGSQVTVSS” here?
The value was “low polyreactivity”.

Which “polyreactivity (PSR sort gate)” value does the source give for “QVQLVESGGGLVQAGGRLRLSCAASGIIFRGNPMGRYRQAPGKERELVAAIARRGGRTYYADSVKGRFTISRDNAKNTVYLQMNCLKAEDTAVYFCAAGELGDYWGQGTQVTVSS” here?
The value was “high polyreactivity”.

With “QVQLVESGGGLVQAGGSLRLSCAASGSIFNYYAMGWYRQAPGKEREFVADISGSGSSTYYADSVKGRFTISRDNAKNTVYLQMNSLKPEDTAVYYCNAEYYWGVGYYPYSDYGYWGQGTQVTVSS” as the sequence, how does the “polyreactivity (PSR sort gate)” value read?
The value was “low polyreactivity”.

For “QVQLVESGGGLVQAGGSLRLSCAPSGFTFGSNAMGWYRQAPGKERELVAAITWRGGSTYYADSVKGRFTISRDNAKNTVYLQMNSLKPEDTAVYYCAAVRSASSWQYIWLKYYYWGQGTQVTVSS”, which “polyreactivity (PSR sort gate)” value is on record?
Its value is “high polyreactivity”.

Which “polyreactivity (PSR sort gate)” value does the source give for “QVQVVESGGGLVQAGGSLRLSCAASGLTYSYYTMGWYRQAPGKERELVAAITSSSGRTYYADSVKGRITISRDNAKNTVYLQMNSLKPEDTAVYYCAARWSPYDYWGQGTQVTVSS” here?
Its value is “low polyreactivity”.

With “QVQLVESGGGLVQAGGSLRLSCAASGRIFGSNAMGWYRQAPGKERELVAAISWRGASTYYADSVKGRFTISRDNAKNTVYLQMNSLIPEDTAVYYCFLRGRATQWDFGYWGQGTQVTVSS” as the sequence, how does the “polyreactivity (PSR sort gate)” value read?
Its value is “high polyreactivity”.

With “QVQLVESGGGLVQAGGSLRLSCAASGSTFQYNAMGWYRQAPGKERELVATITWSGGSTYYADSVKGRFTISRDNAKNTVYLQMNSLKPEDTAVYYCAADYYYGYEFGYWGQGTKVTVSS” as the sequence, how does the “polyreactivity (PSR sort gate)” value read?
The value was “low polyreactivity”.

Which “polyreactivity (PSR sort gate)” value does the source give for “QVQLVESGGGLVQAGGSLRLSCAASGFTFPDYAMGWYRQAPGKERELVAGISSTGDSTYYADSVKGRITISRDNAKNTVYLQMNSLKPEDTAVYYCNAAQERPIIILFSKYDYCGQGTQVTVSS” here?
The value was “low polyreactivity”.

For “QVQLVESGGGLVQAGGSLRLSCAASGFTFTAYAMGWYRQAPGKERELVAAINWSGSRTYYADSVKGRFTISRDHAKNTVYLQMNSLKPEDTAVYYCNTATSKSSYRHYDYWGQGTQVTVSS”, which “polyreactivity (PSR sort gate)” value is on record?
The value was “high polyreactivity”.

For “QVQLVESGGGLVQAGGSLRLSCAASGFTFSRNAMGWYRQAPGKERELVAAITWSGGRTYYADSVKGRFTLSRDNAKNTVYLQMNSLKPEDTAVYYCAARKYHLRSAYDYWGHGTQVTVSS”, which “polyreactivity (PSR sort gate)” value is on record?
Its value is “low polyreactivity”.

With “QVQLVESGGGLVQAGGSLRLSCAASGFTFGNYAMGWYRQAPGKERELVAVISYSTGSTYYADSVKGRFTISRDNAKNTVYLQMNSLKPEDTAVYYCAKRYRSYYQGYGYWGQGTQVTVSS” as the sequence, how does the “polyreactivity (PSR sort gate)” value read?
Its value is “high polyreactivity”.

For “QVQLVESGGGLVQAGGSLRLICAASGRTFRYNAMGWYRQAPGKERELVAAITQSGGSTYYADSVKGRFTISRDNAKNTVYLQMNSLKPEDTAVYYCAKVRERINYDYWGQGTQVTVSS”, which “polyreactivity (PSR sort gate)” value is on record?
Its value is “low polyreactivity”.

For “QVQLVESGGGLVQAGGSLRLSCAASGSTFAYYAMGWYRQAPGKERELVAASSVSGGRTYYADSVQGRFTISRDNAKNTVYLQMNSLKPEDTAVYYCAARLWRDYYWGQGTQVTVSS”, which “polyreactivity (PSR sort gate)” value is on record?
Its value is “high polyreactivity”.

Which “polyreactivity (PSR sort gate)” value does the source give for “QVQLVESGGGLVQAGGSLRLSCAASGRTFGVYAMGWYRQAPGKERELVARIRYSGGTTRYADSVKGRFTISRDNAKNTVYLQMNSLKPEDTAVYYCAATNWWGTEYDYWGQGTQVTVSS” here?
The value was “high polyreactivity”.

With “QVQLVESGGGLVQAGGSLRLSCAASGFTFKYYAMGWYRQAPGKERELVATITRSGGNTYYADSVKGRFTISRDNAKNTVYLQMNSLKPEDTAVYYCNKGVRRSVYSRYDYWGQGTQVTVSS” as the sequence, how does the “polyreactivity (PSR sort gate)” value read?
The value was “high polyreactivity”.

With “QVQLVESGGGLVQAGGSLRLSCAASGRTFPGYAMGWYRQAPGKERELVATITLSDGSTYYADSVKGRFTISRDNAKTTVYLQMNSLKPEDTAVYYCNARRSYFLRYGVNYWGQGTQVTVSS” as the sequence, how does the “polyreactivity (PSR sort gate)” value read?
Its value is “low polyreactivity”.

For “QVQLGESGGGLVQAGGSLRLSCAASGFIFGYYAMGWYRQAPGKERELVAAINYNDDSTYYADSVKGRFTISRDNAKNTVYLQMNSLKPEDTAVYYCAAGVWYGYYVSIYLDYDYWGQGTQVTLSS”, which “polyreactivity (PSR sort gate)” value is on record?
Its value is “low polyreactivity”.

With “QVQLVESGGGLVQAGGSLRLSCAASGRTFHTYAMGWYRQAPGKERELVARITRSGTSTYYADSVKGRFTISRDNAKNTVYLQMNSLKPEDTAVYYCAKPWFLWGYSTSYDWGQGTQVTVSS” as the sequence, how does the “polyreactivity (PSR sort gate)” value read?
The value was “high polyreactivity”.

For “QVQLVESGGGLVQAGGSLRLSCAASGSIFSSYAMGWYRQAPGKERELVAVINSGGSTNYADSVKGRFTISRDNAKNSVYVQMKSLKPEDTAVYYCNAYGGTFHNTAAEFDYWRQGTQVTVSS”, which “polyreactivity (PSR sort gate)” value is on record?
The value was “low polyreactivity”.

Which “polyreactivity (PSR sort gate)” value does the source give for “QVQLVESGGGLVQAGGSLRLSCAASGFIFSSYAMGWYSQAPGKERDLGAAISKSGDRTSYADSVKGRFTISRDNAKNTVYLQMNSLKPEDTAVYYCAKDRLYRTKKYRDMYYWGQGTQVTVSS” here?
The value was “high polyreactivity”.

Which “polyreactivity (PSR sort gate)” value does the source give for “QVQLVESGGGLVQAGGSLRLICDASGFTFGVYAMGWYRQAPGKETELVAAISTTVGSTYYADSVKGRFTISRDNAKNNVYLQLNRLKPEDTALYYCAAEYTGYLNYYIYEYWGQGTQVTVSS” here?
Its value is “low polyreactivity”.

For “QVQLVESGGGLVQAGGSLRLSCAASGRIFHNNAMGWYIQAPGKERELVAAISTGGSTNYADSVKGRFTISRDNAKNTVYLQMNSLKPEDTAVYYCAADHPVTYPTSKFDYWGQGTQVTVSS”, which “polyreactivity (PSR sort gate)” value is on record?
The value was “low polyreactivity”.

With “QVQLVESGGGLVQAGGSLRLRCAASGHIFRQYAMGWYRQAPGKERELVAAITSGGSTYYADSVKGRFTISRDNAKNTVYLEMNSLKPEDNAVYYCADKYFFSYRHGDYWGQGNQVTVSS” as the sequence, how does the “polyreactivity (PSR sort gate)” value read?
Its value is “low polyreactivity”.

With “QVQLVESGGGLVQAGGSLRLSCAASGRTFVGYTMGWYRQAPGKERELVAAIDLSDGSTSYADSVKGRFTISRDNAKNTVYLQMNSLKPEDTAVYYCAKSWANVYAGAHDYWGQGTQVTVSS” as the sequence, how does the “polyreactivity (PSR sort gate)” value read?
The value was “low polyreactivity”.

For “QVQLVESGGGLVQAGGSLRLTCAASGLTFPKYAMGWYRQAPGKERELVAAITQRGGSTYYADSVKGRFTISRDNAKNTVYLQMNSLKPEDTAVYYCNARRRDYNNRREFDYWGQGTQVTVSS”, which “polyreactivity (PSR sort gate)” value is on record?
Its value is “high polyreactivity”.

Which “polyreactivity (PSR sort gate)” value does the source give for “QGQLVESGGGLVQAGGSLRLTCAASGFIFDNYAMGWYRHAPGKERELVADISWGGGSTYYADSVKGRFTISRDNAKNTVYLQMNSLTPEDTAVYYCDAQYSYRMDYWGQGTQVTVSS” here?
Its value is “low polyreactivity”.

Which “polyreactivity (PSR sort gate)” value does the source give for “QDQLVESGGGLVQAGGSLRLSCAASGNTFYVNVMGWYRQPPGKVREFVAAISTRGVSTSYADSVKGRFTISRDIAMNTVYLQMNSLKPEDTAVYYCAASFRRPEPKGTTYGYWGQGTQVTVSS” here?
The value was “high polyreactivity”.

Which “polyreactivity (PSR sort gate)” value does the source give for “QVHLVESGGGLVQAGGSLRLSSAATGSIIYWYDMGWYRQAPGKERELVAAITNDGDSTYYADSVKGRFTISRDNAKNTVYLQMNSLKPEDTAVYYCAADVLFYYEYGSWGQGTQVTVSS” here?
The value was “low polyreactivity”.

With “QVLLVESGGGLVQAGGSLRLSCAAWSIFYLNAMGWYRQAPGKERELVAAISSAGSTYYADSVKVRFTISRDNAKNTVYLQMNSLKPEDTAVYYCAAYWYDSPGVTEIWYDYWGQGTQVTVSS” as the sequence, how does the “polyreactivity (PSR sort gate)” value read?
The value was “low polyreactivity”.

With “QVQLVESGGGLVQAGGSLRLSCAASRSTFGFYAMGWYRQAPGTERELVAAISRRGGTTYYADSVKGRFTISRDIAKNTFYLQMNSLKPEDTAVYYCAARIHYYAGYDYWGQGTQVTVSS” as the sequence, how does the “polyreactivity (PSR sort gate)” value read?
Its value is “high polyreactivity”.

Which “polyreactivity (PSR sort gate)” value does the source give for “QVQLVESGGGLVQAGGSLRLSCAASGSTFRFYTMGWYRPAPGKERELVATISRGGSTYADSVKGRFTISRDNAKNTVYLQMYSLKPEDTAVYYCAKRGYSSWPYDYWGQGTQVSVSS” here?
Its value is “low polyreactivity”.
